Test results from publication PMC4695401 (Chemistry & biology, 2015).
Ends that are not written are not given here. PEG = not defined here

Biological target: BRD-containing DNA-PKcs fragment (aa1878-2700) (UniProt P78527 1878-2700)
Test: pull-down

Chain of BRD-containing DNA-PKcs fragment (aa1878-2700) (P78527 1878-2700): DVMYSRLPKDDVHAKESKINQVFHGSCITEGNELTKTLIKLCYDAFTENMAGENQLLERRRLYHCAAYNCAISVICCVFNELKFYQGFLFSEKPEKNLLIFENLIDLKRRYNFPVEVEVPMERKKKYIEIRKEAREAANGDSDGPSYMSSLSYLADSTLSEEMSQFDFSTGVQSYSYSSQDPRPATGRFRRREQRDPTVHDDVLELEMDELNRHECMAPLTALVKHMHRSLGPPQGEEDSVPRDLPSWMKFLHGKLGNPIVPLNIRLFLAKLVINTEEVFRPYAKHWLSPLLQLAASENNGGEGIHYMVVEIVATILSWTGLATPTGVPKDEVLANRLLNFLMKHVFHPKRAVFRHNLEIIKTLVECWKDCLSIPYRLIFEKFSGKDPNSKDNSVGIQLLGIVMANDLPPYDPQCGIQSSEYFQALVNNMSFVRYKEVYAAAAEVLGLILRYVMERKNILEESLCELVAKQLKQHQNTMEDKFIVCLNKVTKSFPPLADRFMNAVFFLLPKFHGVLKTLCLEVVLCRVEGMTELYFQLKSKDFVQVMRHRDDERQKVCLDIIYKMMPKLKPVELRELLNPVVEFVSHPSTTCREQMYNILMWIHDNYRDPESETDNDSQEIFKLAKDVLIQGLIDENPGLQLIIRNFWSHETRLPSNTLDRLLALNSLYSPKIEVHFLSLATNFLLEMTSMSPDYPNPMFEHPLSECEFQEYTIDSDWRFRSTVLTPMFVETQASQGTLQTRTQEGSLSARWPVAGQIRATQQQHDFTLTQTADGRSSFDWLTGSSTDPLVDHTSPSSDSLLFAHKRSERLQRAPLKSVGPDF

- binding result: binds
Binder: SGRGK(Ac)TGGKARAKAKSR-{PEG-biotin} (reading uncertain) [H2AX K5ac-containing peptide]
